Results published in the Immune Epitope Database (IEDB).
pKd: −log10 of the molar value.

Legend:
HLA-B*18:01 = experiment: IEDB peptide-MHC binding, purified MHC/direct/fluorescence; filed as Kd, often an IC50 or EC50 that approximates it; ≥ and ≤ were set here for values at or beyond the usual limits of such assays; settings: source organism: Influenza A virus (A/WSN/1933(H1N1))
HLA-B*40:01 = experiment: as above; settings: source organism: Influenza A virus (A/WSN/1933(H1N1))
HLA-B*44:02 = experiment: as above; settings: source organism: Influenza A virus (A/WSN/1933(H1N1))
HLA-A*30:02 = experiment: IEDB peptide-MHC binding, purified MHC/competitive/radioactivity; filed as Kd, often an IC50 or EC50 that approximates it; ≥ and ≤ were set here for values at or beyond the usual limits of such assays
HLA-A*24:02 = experiment: as above
HLA-A*29:02 = experiment: as above
HLA-A*26:01 = experiment: as above
HLA-A*01:01 [1] = experiment: as above
HLA-A*23:01 = experiment: as above
HLA-B*15:01 [2] = experiment: as above
HLA-B*35:01 = experiment: as above
HLA-B*53:01 = experiment: as above
HLA-B*15:01 [3] = experiment: IEDB peptide-MHC binding, purified MHC/direct/fluorescence; filed as Kd, often an IC50 or EC50 that approximates it; ≥ and ≤ were set here for values at or beyond the usual limits of such assays; settings: source organism: SARS-CoV1
HLA-A*01:01 [4] = experiment: as above; settings: source organism: SARS-CoV1
HLA-B*58:01 = experiment: as above; settings: source organism: SARS-CoV1
HLA-A*32:01 = experiment: IEDB peptide-MHC binding, purified MHC/competitive/radioactivity; filed as Kd, often an IC50 or EC50 that approximates it; ≥ and ≤ were set here for values at or beyond the usual limits of such assays
HLA-A*30:01 = experiment: as above
[5] = source organism: SARS coronavirus Tor2
[6] = source organism: Mammarenavirus lassaense
[7] = source organism: Dengue virus 4 Philippines/H241/1956
[8] = source organism: Dengue virus 1 Brazil/97-11/1997
[9] = source organism: Dengue virus 3 Martinique/1243/1999
[10] = source organism: Mammarenavirus guanaritoense
[11] = source organism: Vaccinia virus WR
[12] = source organism: Dengue virus 3 Singapore/8120/1995
[13] = source organism: Mammarenavirus brazilense
[14] = source organism: Lassa virus Josiah
[15] = source organism: Mammarenavirus whitewaterense
[16] = source organism: Mammarenavirus choriomeningitidis

In the case of AESRKLLLI, the pKd (HLA-B*18:01) was ≤ 4.70, the pKd (HLA-B*40:01) was 6.80 and the pKd (HLA-B*44:02) was ≤ 4.28.

AFLPFTLGI was tested, and the pKd (HLA-A*30:02; [5]) was 5.09, the pKd (HLA-A*24:02; [5]) was ≤ 4.09 and the pKd (HLA-A*29:02; [5]) was 6.28. For the same sequence, the pKd (HLA-A*26:01; [5]) was ≤ 4.11, the pKd (HLA-A*01:01 [1]; [5]) was ≤ 4.11 and the pKd (HLA-A*23:01; [5]) was ≤ 4.34.

AGFTAGLSY was tested, and the pKd (HLA-A*30:02; [6]) was 6.83, the pKd (HLA-A*24:02; [6]) was ≤ 4.11 and the pKd (HLA-A*29:02; [6]) was 7.22. The pKd (HLA-A*26:01; [6]) was ≤ 4.11, the pKd (HLA-A*01:01 [1]; [6]) was ≤ 4.68 and the pKd (HLA-A*23:01; [6]) was ≤ 4.16.

EMCEDTVTY was tested, and the pKd (HLA-A*30:02; [7]) was 4.84, the pKd (HLA-A*26:01; [7]) was 5.41 and the pKd (HLA-B*15:01 [2]; [7]) was 7.55. For the same sequence, the pKd (HLA-B*35:01; [7]) was 6.17.

For EPEVANLDII, the pKd (HLA-B*53:01; [8]) was 5.07.

With EPGVVSPTSY the pKd (HLA-B*35:01; [9]) was 6.23 and the pKd (HLA-B*53:01; [9]) was 6.50.

EPVPMSTYGW showed a pKd (HLA-B*53:01; [9]) of 6.80.

FFGALKFKI was tested, and the pKd (HLA-A*24:02; [10]) was 5.67, the pKd (HLA-A*29:02; [10]) was 7.69 and the pKd (HLA-A*23:01; [10]) was 6.68.

For FTERSDKSY, the pKd (HLA-A*30:02; [5]) was 7.27, the pKd (HLA-A*24:02; [5]) was ≤ 4.11 and the pKd (HLA-A*29:02; [5]) was 7.16. For the same sequence, the pKd (HLA-A*26:01; [5]) was 5.21, the pKd (HLA-A*23:01; [5]) was ≤ 4.11 and the pKd (HLA-B*15:01 [3]) was 6.30. It also gave a pKd (HLA-A*01:01 [4]) of 7.19 and a pKd (HLA-B*58:01) of 5.55.

FTPEAKNSTF was tested, and the pKd (HLA-A*24:02; [7]) was 5.52 and the pKd (HLA-A*26:01; [7]) was 6.19.

GMYCRCSHG showed a pKd (HLA-B*15:01 [2]; [11]) of 6.67.

Work on GQTGIQRTVF yielded a pKd (HLA-B*15:01 [2]; [7]) of 8.23.

HMIAGVLFTF gave a pKd (HLA-A*24:02; [12]) of 6.37, a pKd (HLA-A*26:01; [12]) of 5.94 and a pKd (HLA-B*15:01 [2]; [12]) of 8.69.

In the case of HSIKRNYPY, the pKd (HLA-A*30:02; [13]) was 7.37, the pKd (HLA-A*32:01; [13]) was 5.76 and the pKd (HLA-A*29:02; [13]) was 6.58. The pKd (HLA-A*26:01; [13]) was 6.18, the pKd (HLA-A*01:01 [1]; [13]) was 7.28 and the pKd (HLA-A*30:01; [13]) was 6.85.

For HYVRITGLY, the pKd (HLA-A*30:02; [5]) was ≤ 4.56, the pKd (HLA-A*24:02; [5]) was ≤ 4.64 and the pKd (HLA-A*29:02; [5]) was 6.95. The pKd (HLA-A*26:01; [5]) was 6.83, the pKd (HLA-A*01:01 [1]; [5]) was 4.74 and the pKd (HLA-A*23:01; [5]) was 5.12.

With ILGAQALPVY the pKd (HLA-A*30:02; [7]) was 7.09, the pKd (HLA-B*15:01 [2]; [7]) was 8.31 and the pKd (HLA-A*01:01 [1]; [7]) was ≤ 4.15.

ILKKLSPYF was tested, and the pKd (HLA-B*15:01 [2]; [11]) was 8.93.

IMMLKLLTEF gave a pKd (HLA-A*24:02; [8]) of 6.51 and a pKd (HLA-B*15:01 [2]; [8]) of 8.20.

In the case of ITEMLQKEY, the pKd (HLA-A*30:02; [14]) was 6.76, the pKd (HLA-A*32:01; [14]) was ≤ 4.11 and the pKd (HLA-A*29:02; [14]) was 5.12. For the same sequence, the pKd (HLA-A*26:01; [14]) was ≤ 4.11, the pKd (HLA-A*01:01 [1]; [14]) was 7.73 and the pKd (HLA-A*30:01; [14]) was 5.32.

IYNEKVAGF was tested, and the pKd (HLA-A*30:02; [5]) was ≤ 4.64, the pKd (HLA-A*24:02; [5]) was ≤ 4.58 and the pKd (HLA-A*29:02; [5]) was 4.70. For the same sequence, the pKd (HLA-A*26:01; [5]) was 5.45, the pKd (HLA-A*01:01 [1]; [5]) was ≤ 4.11 and the pKd (HLA-A*23:01; [5]) was 4.71.

Work on KFWYVNHTGF yielded a pKd (HLA-A*24:02; [15]) of 6.22, a pKd (HLA-A*29:02; [15]) of 6.47 and a pKd (HLA-A*23:01; [15]) of 7.09.

For KQSNTNKHM, the pKd (HLA-B*15:01 [2]; [11]) was 7.56.

Work on KTFFWFNEV yielded a pKd (HLA-A*30:02; [13]) of 7.23, a pKd (HLA-A*32:01; [13]) of 8.14 and a pKd (HLA-A*29:02; [13]) of 4.73. It also gave a pKd (HLA-A*26:01; [13]) of 4.90, a pKd (HLA-A*01:01 [1]; [13]) of 4.94 and a pKd (HLA-A*30:01; [13]) of 7.03.

Sequence KTGESSRSY has a pKd (HLA-A*30:02; [16]) of 7.20, a pKd (HLA-A*32:01; [16]) of 4.84 and a pKd (HLA-A*29:02; [16]) of 4.78. For the same sequence, the pKd (HLA-A*26:01; [16]) was ≤ 4.11, the pKd (HLA-A*01:01 [1]; [16]) was 5.44 and the pKd (HLA-A*30:01; [16]) was 5.96.

LFCLLNRYF was tested, and the pKd (HLA-A*30:02; [5]) was ≤ 4.09, the pKd (HLA-A*24:02; [5]) was ≤ 4.11 and the pKd (HLA-A*29:02; [5]) was ≤ 4.39. For the same sequence, the pKd (HLA-A*26:01; [5]) was 5.94, the pKd (HLA-A*01:01 [1]; [5]) was 5.46 and the pKd (HLA-A*23:01; [5]) was ≤ 4.15.

LFFFVYENAF was tested, and the pKd (HLA-A*30:02; [5]) was ≤ 4.29, the pKd (HLA-A*24:02; [5]) was 6.73 and the pKd (HLA-A*29:02; [5]) was 6.97. The pKd (HLA-A*26:01; [5]) was 4.84, the pKd (HLA-A*01:01 [1]; [5]) was 5.01 and the pKd (HLA-A*23:01; [5]) was 7.23.
